Measurements taken from patent US20140308283A1 (TORAY INDUSTRIES, published 2014).

T1: CAPRIN-1 protein expressed on the cell membrane surface of human cancer cell lines (human, UniProt Q14444 2-709)
T1 sequence (looked up): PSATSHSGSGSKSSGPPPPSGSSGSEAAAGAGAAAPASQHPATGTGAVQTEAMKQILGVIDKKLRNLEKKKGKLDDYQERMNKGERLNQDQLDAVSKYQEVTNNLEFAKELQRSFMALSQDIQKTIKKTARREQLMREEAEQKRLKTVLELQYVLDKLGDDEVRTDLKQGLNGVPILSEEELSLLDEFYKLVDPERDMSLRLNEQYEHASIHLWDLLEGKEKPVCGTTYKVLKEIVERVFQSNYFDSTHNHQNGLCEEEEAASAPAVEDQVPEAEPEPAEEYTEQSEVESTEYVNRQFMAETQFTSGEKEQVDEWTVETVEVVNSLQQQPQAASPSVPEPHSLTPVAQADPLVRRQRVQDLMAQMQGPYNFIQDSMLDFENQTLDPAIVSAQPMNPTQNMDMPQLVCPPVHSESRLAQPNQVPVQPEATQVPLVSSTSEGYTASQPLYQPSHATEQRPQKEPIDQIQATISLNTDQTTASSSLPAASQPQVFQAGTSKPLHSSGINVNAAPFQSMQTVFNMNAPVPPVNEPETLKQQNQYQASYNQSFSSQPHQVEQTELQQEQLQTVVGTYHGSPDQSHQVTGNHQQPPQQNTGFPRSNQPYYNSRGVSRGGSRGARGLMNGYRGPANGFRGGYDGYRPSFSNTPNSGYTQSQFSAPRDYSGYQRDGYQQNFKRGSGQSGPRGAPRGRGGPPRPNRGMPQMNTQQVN

T2: polypeptide of SEQ ID NO: 266 (human)
T2 peptide: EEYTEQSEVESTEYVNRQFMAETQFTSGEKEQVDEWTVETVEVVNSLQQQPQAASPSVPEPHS

T3: peptide of SEQ ID NO: 267 (human)
T3 peptide: QQPQAASPSVPE


What was measured:
[1] = biological target: T1, CAPRIN-1 protein expressed on the cell …; assay: cell-based or functional assay
[2] = biological target: T1, CAPRIN-1 protein expressed on the cell …; assay: flow cytometry on Capan-2, MIAPaCa-2, PANC-1 and BxPC-3 cells, vs isotype control
Description: Next, four pancreatic cancer cell lines (Capan-2, MIAPaCa-2, PANC-1, and BxPC-3) confirmed to have CAPRIN-1 gene expression were examined for their expression of CAPRIN-1 protein on the cell surface. 10⁶ cells of each cell line were centrifuged in each 1.5-ml microcentrifuge tube. The cancer cell surface-reactive anti-CAPRIN-1 mouse monoclonal antibodies #1 to #22 prepared in Example 4 and the culture supernatant (100 μl) containing the anti-CAPRIN-1 mouse-chicken chimeric antibody #1, #2, or #3 prepared in the preceding paragraph (2) were separately added to the tubes and left standing for 1 hour on ice. After washing with PBS, the cells were suspended in FITC-labeled goat anti-mouse IgG antibodies (manufactured by Invitrogen Corp.) diluted 500-fold with PBS containing 0.1% FBS and left standing for 1 hour on ice. After washing with PBS, the fluorescence intensity was measured using FACSCalibur (Becton, Dickinson and Company). On the other hand, the same operation as above was performed using isotype control antibodies, instead of the anti-CAPRIN-1 mouse monoclonal antibodies #1 to #22 and the culture supernatant containing the mouse-chicken chimeric antibody #1, #2, or #3, to prepare a control. As a result, all the cells supplemented with any of the monoclonal antibodies #1 to #22 and the mouse-chicken chimeric antibodies #1, #2, and #3 had fluorescence intensity at least 20% stronger than that of the control. […] The above rate of enhancement in fluorescence intensity was indicated by the rate of increase in mean fluorescence intensity (MFI) in each cell line and calculated according to the following expression: […]

[3] = biological target: T2, polypeptide of SEQ ID NO: 266; assay: ELISA on immobilised synthetic CAPRIN-1 peptides
Description: (§1) Then, the solution in each well was discarded, and each well was washed six times with PBST.
(§2) A TMB substrate solution (manufactured by Thermo Fisher Scientific Inc.) was added thereto at a concentration of 100 μl/well and left standing for 15 to 30 minutes to cause color reaction. After the color development, the reaction was terminated by the addition of 1 N sulfuric acid at a concentration of 100 μl/well. The absorbance was measured at 450 nm and 595 nm using an absorption spectrometer. As a result, a polypeptide of SEQ ID NO: 266 was identified as a partial CAPRIN-1 sequence recognized by all of the anti-CAPRIN-1 antibodies human-chicken chimeric monoclonal antibody #1 and anti-CAPRIN-1 monoclonal antibodies #1 to #5. In the polypeptide of SEQ ID NO: 266, a peptide of SEQ ID NO: 267 was identified as a partial sequence recognized by the human-chicken chimeric monoclonal antibody #1 and the mouse monoclonal antibodies #3 and #4. In the polypeptide of SEQ ID NO: 266, a peptide of SEQ ID NO: 268 was identified as a partial sequence recognized by the mouse monoclonal antibodies #1, #2, and #5. […] Also, a polypeptide comprising the amino acid sequence of SEQ ID NO: 270 was identified as a partial CAPRIN-1 sequence recognized by all of the anti-CAPRIN-1 monoclonal antibodies #6, #7, and #8. […] In addition, a polypeptide comprising the amino acid sequence of SEQ ID NO: 272 was identified as a partial CAPRIN-1 sequence recognized by all of the anti-CAPRIN-1 monoclonal antibodies #9, #10, and #11. […] In addition, a polypeptide comprising the amino acid sequence of SEQ ID NO: 269 was identified as a partial CAPRIN-1 sequence recognized by the human-chicken chimeric monoclonal antibody #3.

[4] = biological target: T3, peptide of SEQ ID NO: 267; assay: ELISA on immobilised synthetic CAPRIN-1 peptides
Description: as §1, §2

rate of increase in mean fluorescence intensity [2] | binding result [3] | binding result [4] | Binder | cytotoxic activity (ADCC) against MIAPaCa-2 and Capan-2 [1]
≥ 20% | – | – | mouse monoclonal antibody #8 (antibody, V domains shown, Mouse hybridoma antibody; also called anti-CAPRIN-1 mouse monoclonal antibody #8) VH: GGGLVKPGGSLKLSCAASGFAFSSYDMSWIRQTPEKRLEWVAYISSGAGSTYYPDTVKGRFTVSRDNAKNTLYLQMSSLKSEDTAMYYCARHFYRFDYWGQGTTVTVSS VL: SIVMTQTPKFLLVSAGDRITITCKASQSVSNDVAWYQQKPGQSPKLLIYYASNRYTGVPDRFTGSGYGTDFTFTISTVQAEDLAVYFCQQDDRFPLTFGAGPS | ≥ 10%
≥ 20% | – | – | mouse monoclonal antibody #18 (antibody, V domains shown, Mouse hybridoma antibody; also called anti-CAPRIN-1 mouse monoclonal antibody #18) VH: LQESGAELARPGASVKLSCKASGYTFTSYWMQWVKQRPGQGLEWIGAIYPGDGDTRYTQKFKGKATLTADKSSSTAYMQLSSLASEDSAVYYCARGEYGNYFAYWGQGTTVTVSS VL: TSDASLGERVTITCKASQDINSYLSWFQQKPGKSPKTLIYRANRLVDGVPSRFSGSGSGQDYSLTISSLEYEDMGIYYCLQYDEFPLTFGGGTKLEIKQ | ≥ 10%
≥ 20% | – | – | mouse monoclonal antibody #6 (antibody) chain 1: DAELVKPGASVKISCKASGYTFTDHSIHWVQQKPEQGLEWIGYISPGNGNIKYNEKFKGKATLTADKSSSTAYMQLNSLTSEDSAVYFCKRSLGRGGPYYFDYWGQGTTVTVSS chain 2: DIVLTQAAPSLPVTPGESVSISCRSSKSLLHSNGNTYLYWFLQRPGQSPQLLIYRMSNLASGVPDRFSGSGSGTAFTLRISRVEAEDVGVYYCMQHREYPVTFGSGPN | ≥ 10%
≥ 20% | – | – | mouse monoclonal antibody #3 (antibody, V domains shown) VH: GGGLVKPGGSLKLSCAASGFTFSSYGMSWVRQTPEKRLEWVATISSGGSYTYYPDSVKGRFTISRDNAKNTLYLQMSSLRSEDTAMYYCASLASYYFDYWGQGTTLTVSS VL: not shown | ≥ 10%
≥ 20% | – | – | mouse-chicken chimeric antibody #2 (antibody, mouse IgG1, V domains shown, also called anti-CAPRIN-1 mouse-chicken chimeric antibody #2) VH: AVTLDESGGGLQTPGGGLSLVCKASGFTFSSFDMGWVRQAPGKGLEFVAQINDAGSRTWYATAVKGRATISRDNGQTTVRLQLNNLRAEDTGTYYCTRGSGYVGAGAIDAWGHGTEVIVS VL: AALTQPSSVSANPGETVKITCSGGSGYYGWYQQQKSPGSAPVTVIYQNDKRPSDIPSRFSGSGSGSTNTLTITGVQAEDEAVYFCGRYDSTDSGIFGAGTTLTVL | –
– | binds | binds | human-chicken chimeric antibody #1 (antibody, human IgG1, kappa, V domains shown, also called human-chicken chimeric monoclonal antibody #1) VH: AVTLDESGGGLQMSRGGLSLVCKASGFDFSSYQMNWIRQAPGKGLEFVAAINKFGNSTGHGAAVKGRVTISRDNGQSTVRLQLNNLRAEDTAIYFCTKHAYGYCGSGTWCAAGEIDAWGHGTEVIVSS VL: QAASTQPSSVSANPGETVEITCSGGGSYSYGWFQQKSPGSAPVTVIYYNNKRPSDIPSRFSGSKSGSTGTLTITGVQADDEAVYYCGSGDSTDTAVFGAGTTLTVLG | –
≥ 20% | – | – | mouse-chicken chimeric antibody #1 (antibody, mouse IgG1, V domains shown, from CHO-K1 culture supernatant; also called anti-CAPRIN-1 mouse-chicken chimeric antibody #1) VH: AVTLDESGGGLQMSRGGLSLVCKASGFDFSSYQMNWIRQAPGKGLEFVAAINKFGNSTGHGAAVKGRVTISRDNGQSTVRLQLNNLRAEDTAIYFCTKHAYGYCGSGTWCAAGEIDAWGHGTEVIVSS VL: QAASTQPSSVSANPGETVEITCSGGGSYSYGWFQQKSPGSAPVTVIYYNNKRPSDIPSRFSGSKSGSTGTLTITGVQADDEAVYYCGSGDSTDTAVFGAGTTLTVLG | –
≥ 20% | – | – | mouse-chicken chimeric antibody #3 (antibody, mouse IgG1, V domains shown, also called anti-CAPRIN-1 mouse-chicken chimeric antibody #3) VH: AVTLDESGGGLQTPGGALSLVCKASGFTFSGYDMLWVRQAPGKGLEWVAGIGSTGGGTDYGAAVKGRATISRDNGQSTVRLQLNNLRAEDTATYYCAKVAGGCNSGYCRDSPGSIDAWGHGTEVIVS VL: AVTQQPASVSANPGETVKITCSGGGSRNYYGWYQQKSPGSVPVTVIYYDDQRPSNIPSRFSGALSGSTSTLTITGVQADDEAVYFCGSADSNTYEGSFGAGTTLTVL | –
– | – | – | human-chicken chimeric antibody #2 (antibody, human IgG1, kappa, V domains shown) VH: AVTLDESGGGLQTPGGGLSLVCKASGFTFSSFDMGWVRQAPGKGLEFVAQINDAGSRTWYATAVKGRATISRDNGQTTVRLQLNNLRAEDTGTYYCTRGSGYVGAGAIDAWGHGTEVIVSA VL: AALTQPSSVSANPGETVKITCSGGSGYYGWYQQQKSPGSAPVTVIYQNDKRPSDIPSRFSGSGSGSTNTLTITGVQAEDEAVYFCGRYDSTDSGIFGAGTTLTVLT | ≥ 10%
≥ 20% | – | – | mouse monoclonal antibody #12 (antibody, V domains shown, Mouse hybridoma antibody; also called anti-CAPRIN-1 mouse monoclonal antibody #12) VH: EVQLHQFGAELVKPGASVKISCKASGYTFTDYNMDWVKQSHGKSLEWIGDINPNYDSTSYNQKFKGKATLTVDKSSSTAYMELRSLTSEDTAVYYCARSRSYDYEGFAYWGQGTLVTVSA VL: DIQMTQSPASLSASVGETVTITCRASGNIHNYLAWYQQKQGKSPQLLVYNAKTLADGVPSRFSGSGSGTQYSLKINSLQPEDFGSYYCQHFWSTLTFGAGTKLELKR | ≥ 10%
≥ 20% | – | – | mouse monoclonal antibody #15 (antibody, V domains shown, Mouse hybridoma antibody; also called anti-CAPRIN-1 mouse monoclonal antibody #15) VH: EVQLHQFGAELVKPGASVKISCKASGYTFTDYNMDWVKQSHGKSLEWIGDINPNYDSTSYNQKFKGKATLTVDKSSSTAYMELRSLTSEDTAVYYCARSRSYDYEGFAYWGQGTLVTVSA VL: SGDRVSLSCRASQSISNYLHWYQQKSHESPRLLIKYASQSISGIPSRFSGSGSGTDFTLSINSVETEDFGMYFCQQSNSWPYTFGAGTKLEIKQ | ≥ 10%
≥ 20% | – | – | mouse monoclonal antibody #14 (antibody, V domains shown, Mouse hybridoma antibody; also called anti-CAPRIN-1 mouse monoclonal antibody #14) VH: EVQLHQFGAELVKPGASVKISCKASGYTFTDYNMDWVKQSHGKSLEWIGDINPNYDSTSYNQKFKGKATLTVDKSSSTAYMELRSLTSEDTAVYYCARSRSYDYEGFAYWGQGTLVTVSA VL: DIQLTQSPASLSASVGETVTITCRASGNIHNYLAWYQQKQGKSPQLLVYNAKTLADGVPSRFSGSGSGTQYSLKINSLQPEDFGSYYCQHFWSTLTFGGGTKLEIK | ≥ 10%
≥ 20% | – | – | mouse monoclonal antibody #13 (antibody) chain 1: EVQLHQFGAELVKPGASVKISCKASGYTFTDYNMDWVKQSHGKSLEWIGDINPNYDSTSYNQKFKGKATLTVDKSSSTAYMELRSLTSEDTAVYYCARSRSYDYEGFAYWGQGTLVTVSAAKTTPPSVY chain 2: AVLRCSRGLLVIWISDIQLTQSPSSLAVTAGEKVTMSCKSSQSLLWSVNQKNYLSWYQQKQRQPPKLLIYGASIRESWVPDRFTGSGSGTDFTLTISNVHAEDLAVYYCQHNHGSFLPSRSEQVPSWRSNNR | ≥ 10%
